Our source for the staining, fold over background (fold over background), IC50 D4 (ug/ml), cell killing of MDA-MB-468 cells, 1 h treatment and IC50 D6 (ug/ml), cell killing of MDA-MB-468 cells, 1 h treatment values is US20100151003A1.

Bridges are numbered along the chain shown (N, C = ends). Where no end group is shown, it is not given here. DSPE = distearoylphosphatidylethanolamine; PEG3400 = polyethylene glycol, 3400 Da; PEG = not defined here

Assay [1] concerns the target human EGFR on tumor cells (human) (UniProt P00533). Briefly: FACS, A431 cells preincubated with 2 ug EGF, 2 uM bio-P190:avidin complex, 4 °C.
Assay [2] has the same target. The experiment in a line: cell-based or functional assay.

For the molecule DPCTWEVWGRECLQ-{PEG-biotin} (disulfide 3-12 (inferred); reading uncertain) [Biotinylated-PEGylated P190], the staining, fold over background (fold over background) in assay [1] was 20. As for {DSPE-PEG3400}-DPCTWEVWGRECLQ (disulfide 3-12; not fully specified; also: inserted in liposomes) [P190-PEG-DSPE conjugate inserted in STEALTH liposomes], in assay [2], the IC50 D4 (ug/ml), cell killing of MDA-MB-468 cells, 1 h treatment was found to be 120 µg/mL and the IC50 D6 (ug/ml), cell killing of MDA-MB-468 cells, 1 h treatment was determined as 35 µg/mL.
